Data as given in the DeepSol protein solubility set.

Assay: soluble on expression in E. coli; label from the status in PepcDB or PDB records

Sequence	soluble on expression in E. coli
MGSDKIHHHHHHMSDNEIVAGIMRDHIINLLKEGKRIDDRGFEDYRPIEIEVGIIEKAEGSALVKLGSTQVLVGIKTTLGEPFPDTPNMGVMTTNVELVPLASPTFEPGPPDERAIELARVTDRGIRESRALNLEKMVIVPGKIVRVVFIDVHVLDHDGNLMDAIGIASIAALLNAKVPKVEYNEETGEVEILEEKEPLPVERIPIPVTFAKIGNILVVDPSLEEELVMDGRLTVTTDETGHISAVQKGEGGAFKLEEVMYAVETAFKKAEEIRKIVLEAIKKSGE	not soluble
MYLLRINIEGTINYGLYKYLYPALKAAEGKKSIAGLILVFNSGGGDAASSQLIHDLVKKIRKKKPVYSLALGICASGAYWIASASTKIYAIDTSLIGSIGVISIRPNVKKLMEKIGVDVMVYKSGKYKDMTSPFSEPNEEEKSVYQRLLDDIFEKFKRSVAEDRGIPSEKIDEIANGMVYSAKMAADNGLIDRIANYDDLVSDLTKEVGKRLKVKEFYIRKPLLQRLLGILEHHHHHH	not soluble
MSLSSEVVLMKPYEKLVERFNEMAAEFLSYFPTVKSVGNLESELDKRRFVILFRAMLRLRNEVKGYNEFDAEDLTIEEQRFADYQSKYLDMSNEFAITSEKEDAESILQDIDFELELVHRDIINVMYILALLQDLKPESSSYPKDRKAVLDTMDSNPELRSKIALIDNFIKLHIDGRQSNDLPADMESDLDKYIATQKAIAIEQVATEEGIDSTLLHEYISEYEYLGKPKNEIIKRAIDPLKLSFMDAQSKKKSLIDKMKDIIKLFSWNEGHHHHHH	soluble
MLYLHDVWVNWFEGEENGYNVCHFYEWRKDDTIELLDQVPLLKVDATLYHYIENELLELPQKMLKTYIIRLIFVKIMNVCSKSIALLLQNGKGIIAIDTIGYNVPIRKSRLIPRQEQMVYEMVENVQAEKYEFQVEETEKEHHILSPSPFIMNGLTRKERQLKQLLFMALDQLHTTKNTAEIRYWFTEWDPSAYGMVQHMEFEDIWAKLYDEAKTGWSDKHEQLCERLVKGQPFFEKLWEMENEQKVN	not soluble
MSCIAAIAAAEGTGSRMAYVSLPRRLVTLLMISTVMVSCSAEGLVPPAEVDGTTRVSAIRSSRQQGYSAPSGAVNQVERAGQGADYPSTMSQPMPEPYASQDPLLQSPQAGQGYSTLDSQHQARMAASGHTNMPAQPMQSQTMQSQTMQAQTMQAQTMPGQQLASNQNAEGEGGVNMDSMLGVEPVRGLAEEQDADIAEGASAQPVVDGIGTDNPVAVSPPRRQQGASQSRLIPPPPVGSSSRRQPVEEVAMLMPNDPMAGGPMQSNRSMPPGVMPSSEVACRSELRRLGVAFRDVARIADGPTCGIDYPIELSGLASGVAIRPAVKLNCQVTLAFAKWVKFELVPSSRFRYLSGVGRITPMGGYSCRKMNSRSSNPWSEHARGNAIDIGTITLKNGKEIDVRSKSFFAFREKALLKAVRSDSCKYFSTVLGPGSDPNHWNHFHFDLRTRKSGYRHCD	not soluble
MGHHHHHHSHMAKLLSDLSVDSARCKPGNNLTKSLLNIHDKQLQHDPAPAHTSIMSYLNKLETNYSFTHSEPLSTIKNEETIEPDKTYENVLSSRGPQNSNTRGMEEASAPGIISALSKQDSDEGSETMALIEDEHNLDNTIYIPFARSTPEKKSPLSKRLSPQPQIRAATTQLVSNSGLAVSGEENKLCTPVICSSSTKEAEDAPEKLSRASDMKDTQLLKKIKEAIGKIPAATKEPEEQTACHGPSGCLSNSLQVKGNTVCDGSVFTSDLMSDWSISSFSTFTSRDEQDFRNGLAALDANIARLQKSLRTGLLEK	not soluble
MEEINTKEVAQRITTELKRYSIPQAIFAQRVLCRSQGTLSDLLRNPKPWSKLKSGRETFRRMWKWLQEPEFQRMSALRLAACKRKEQEHGKDRGNTPKKPRLVFTDVQRRTLHAIFKENKRPSKELQITISQQLGLELSTVSNFFMNARRRSLDKWLEHHHHHH	soluble
MLSNMLDVNLEKMERFAAKVWRKYGKEDPLAQLSFNEYDYLKVIQSAPQAIRLTDLALALEVSKPSASNMLKRLERRGLVKRVQCQSDARSQLFELTEQAELHLASEAKVYQILAEQVAQNLSSEEAMMLDLLLGKALR	not soluble
MGSDKIHHHHHHMKVLQFNQDATCCVVAASSHQISIFNCDPFGKCFEIDTKNSKKKTSNNNGSASNSESRNNEESILITNGSRDRTDAEEEEDNEDNALVTGNILKEGEFVIEMLFSTSLIAIADRGQGLNKGKKLKIVNTKRKCTICEIVFPHEIVDVVMNRKRMCVLLESDQIFIYDISCMKPLETIDLWEDHYKRSQANSFSNASNTGTLEGDSANLNRVATNLLANATQKSVNGSNPSVRTRRNSLRSKIRPRMVLSNDDRSILCFTAYSSPKKNKPNSEALYDVVIYDTLNVTPVNYLNSVHKGNVACLAVSHDGKLLATASDKGTIIRVFHTGVDSDYMSSRSLFKEFRRGTRLCNLYQLAFDKSMTMIGCVGDTDTIHLFKLDDASNSLPGDNSSNGHWNEEEYILASNSNPSMGTPKEIPLSKPRIANYFSKKIKSSIPNQNLSRNFAYITVNESNRSCLGFPDEFPNQVYIASDDGTFSIYSIPSKPGECVLTKNNKFT	not soluble
QVSLRESGGGLVQPGRSLRLSCTASGFTFRHHGMTWVRQAPGKGLEWVASLSGSGTKTHFADSVKGRFTISRDNSNNTLYLQMDNVRDEDTAIYYCAKAKRVGATGYFDLWGRGTLVTVSSASTKGPSVFPLAPSSKSTSGGTAALGCLVKDYFPEPVTVSWNSGALTSGVHTFPAVLQSSGLYSLSSVVTVPSSSLGTQTYICNVNHKPSNTKVDKKAEP	soluble
MGHHHHHHHHHHSSGHIEGRHMYTVMLDLKGRSVLVVGGGTIATRRIKGFLQEGAAITVVAPTVSAEINEWEAKGQLRVKRKKVGEEDLLNVFFIVVATNDQAVNKFVKQHIKNDQLVNMASSFSDGNIQIPAQFSRGRLSLAISTDGASPLLTKRIKEDLSSNYDESYTQYTQFLYECRVLIHRLNVSKSRKHELLTEIIDDQYRLSLVKQREFLQQIEKYK	soluble
MATTVQLSDQSLRQLETLAIHTAHLIQPHGLVVVLQEPDLTISQISANCTGILGRSPEDLLGRTLGEVFDSFQIDPIQSRLTAGQISSLNPSKLWARVMGDDFVIFDGVFHRNSDGLLVCELEPAYTSDNLPFLGFYHMANAALNRLRQQANLRDFYDVIVEEVRRMTGFDRVMLYRFDENNHGDVIAEDKRDDMEPYLGLHYPESDIPQPARRLFIHNPIRVIPDVYGVAVPLTPAVNPSTNRAVDLTESILRSAYHCHLTYLKNMGVGASLTISLIKDGHLWGLIACHHQTPKVIPFELRKACEFFGRVVFSNISAQEDTETFDYRVQLAEHEAVLLDKMTTAADFVEGLTNHPDRLLGLTGSQGAAICFGEKLILVGETPDEKAVQYLLQWLENREVQDVFFTSSLSQIYPDAVNFKSVASGLLAIPIARHNFLLWFRPEVLQTVNWGGDPNHAYEATQEDGKIELHPRQSFDLWKEIVRLQSLPWQSVEIQSALALKKAIVNLILRQAEEHHHHHH	soluble
MAPVVCDVCGVRRAVVLQRHTGRRLCRECFREDIVGRVRREVERWGMIGPGETVLLGLSGGKDSYVLLDALSEIVGPSRLVAVSIVEGIPGYNREGDIEKIRRVAAARGVDVIVTSIREYVGASLYEIYSRARGRGAGHAACTYCGISRRRILALYARLYGAHKVATAHNLDDEAQTAIVNFLRGDWVGMLKTHPLYRSGGEDLVPRIKPLRKVYEWETASYVVLHRYPIQEAECPFINMNPTLRARVRTALRVLEERSPGTLLRMMERLDEELRPLAQAMKPSSLGRCERCGEPTSPKRRLCKLCELLEEAGFQEPIYAIAGRGKRLRLQSPTASPG	not soluble
MGSDKIHHHHHHMENDFPLKGKTVLVTRNKAQAASFQQKVEALGGKAVLTSLITFRRALPNDVAEQVREDLAAPGWLVFTSVNGADFFFSYLKENQLILPAHKKIAAVGEKTARRLKMHNVSVDVMPQEYIAEQLADALKQHAEPGETITVMKGNLSRDVIKQELVPLGFEVKEWVLYETIPDEEGIEALKDAAGQYSFDYVTFTSSSTVHTFMHVLGEELKKWKANGTACISIGPLTNDALLTYGITSHTPDTFTIDGMLELMCSMSREEERI	not soluble
MSLKLLPAKQEAIEFVHFANVINDYLYKYPDKRNSGGTLTSEQIGITPVYDIHHIIYGKRVYIWSADTEGLMSALQQQTKHSAMLGRVKNKKIVDNQGNDMGVPVPSSIPEEAIVLINEGHHHHHH	soluble
SLVQHFDTLLVNIGQLLPMESKGPKRGKEMSELQLLEHAALGIRDGKVAFIGTMVEADTFTANQMIDCQGKLVTPGLVDPHTHLIFGGSREHEMALKQQGVPYLEILKNGGGILATVEATRAASEEELITKAICHLNRMLSYGVTTIEAKSGYGLDRETEWKQLRAAKAVGEQHPIDIVSTFLGAHAIPTSHRNDPDRFLDEMADMLGEIKEQNLAEFVDIFTETGVFTVEQSRTFLQKAKERGFGLKLHADEIDPLGGAELAGELGAISADHLVGASDQGIQKMAAAGTIACLLPGTTFYLGKDTYARARDMIDQGLAVTISTDFNPGSSPTENLQLIMSIAALRLKMTPEEIWHAVTVNGAHAIGRGDTAGQLAVGRAADVVVWDAKNYYYVPYHYGVNHVHSVWKKGEVVYERRRAFEGLSISR	soluble
MGHHHHHHSHMTTPRSAPLYKLKSEDGQIFNVERGPMKFCAFINQKFIDHGVNDRNCERADPILVPFHSSIVQAVIEWLYHYQDNPLARRDSKIRYHDFSEWDKQFFNVESGVLFALLNASHALGVEDLMNMGCAAAAELIRGKSTEEIRKIYGIRSDEEQMEEALANGGEGTSAMTFTTDSD	soluble
MKKTGWGILGAVAAFTGYAYWSTKHLTVTDYEILSDKIPAEWDGATFVQLSDLHSASFGLYNNPLLSIVNELAPDAVFLTGDMIDGDESPFVTMAVVRKLAKEFPVFYVSGNHEGRSAFYEDFKADMEKHHVAVLENERYFLRKDGAAIMVAGVKDPRFVRDDWAEKELPKQVWEEEALKEALDEATANLSPDYFTILLAHRPEFWPLYQAYPVDLVLSGHAHGGQFRLPLTEGLFAPGQGFMPKWTAGLHSAGGKSLIVSRGLGNVTKLPRLFNDPEIIRITLKAKGDARENLEHHHHHH	not soluble
MEIRLFSGSAHPDLARRVAEALGVPLGKALVDRFPDGEVRVRLLESVRGEDVYLIQPTCPPVNDHLMELLLLADAARRSSAGRINAVIPYFGYARQDKQTEGREPISARLVAGLLERVGVERVIAIDLHAPQIQGFFDIPVDHLSAVRLFARYLREKGYVENAVVVSPDAGRAEEARRLAERLGLPLAMLAKRRLGPRETSVTYVIGDVEGKRPILVDDIVSTGGTIRRGVEALLQAGALPEVVVMATHAVLVGGAKENLAHPAVREVVFTDTIPLKDGGYTVLSTAELLAQAIRHVHTNQSVSALI	soluble
GPGSMFSCCLRSLARGREPQVLGTAVPSFYNFPYRAQDVLHLYRDLLKLIYQHPPQERADLLFRLRNEFHSRRHLSAPKLISAAIRRGEGILNVQRGLMESRSVRARAVASRERGAQSVDGLWDQLQIVSGHMLPGLRNFSASRGLSRGSYVRQATTQAVYSRRK	not soluble
MAGDPMKKTLTVTVSSVLAFLALNNAAHAQQHGTQVKTPVQHNYVSNVQAQTQSPTTYTVVAGDSLYKIALEHHLTLNQLYSYNPGVTPLIFPGDVISLVPQNKVKQTKAVKTPVRKASQAKKVVKQPVQQASKKVVVKQAPKQAVAKTVNVAYKPAQVQKSVPTVPVAHNYNKSVANRGNLYAYGNCTYYAFDRRAQLGRSIGSLWGNANNWNYAAKVAGFKVDKTPEVGAIFQTAAGPYGHVGVVESVNPNGTITVSEMNYAGFNVKSSRTILNPGKYNYIHLEHHHHHH	not soluble
